We go through two proteins from publication PMC12312033.

Holding throughout (experiment): NMR
What all share (details): 286 K (pH measured at 21 °C), none, MilliQ water with 3.2 mM DSS-d6 and 0.13 mM EDTA, pH adjusted with NaOH/HCl, random coil

For series [1], the target named is Glu17 (UniProt position 68, …).
Series [2] concerns the target Glu24 (UniProt position 75, …).
Series [3] deals with Glu21 (UniProt position 72, …).
In series [4] the target is Glu3 (position 3, ---GGEGG---).
The mark [5] stands for this setting: 50 mM CaCl2, total ionic strength not stated, 50 mM CaCl2 (5-fold excess over 10 mM peptide).
The mark [6] stands for this setting: not stated (no added salt; varies with NaOH/HCl additions), no Ca2+, 10 mM peptide.

Turning to PLEPRREVSELN [Osteocalcin P15-N26 peptide, uncarboxylated (Glu) form (peptide 5) (Homo sapiens; C23S)], the pKa in series [1] (setting [5]) is recorded as 4.25; in series [1] (setting [6]) it was 4.26; in series [2] (setting [5]), 4.20; in series [2] (setting [6]) it was 4.19; in series [3] (setting [5]), 4.28; in series [3] (setting [6]), 4.33.

As for GGEGG [Model peptide 1, Ac-GGEGG-NH2 (synthetic)], the pKa turned out to be 4.30 in series [4] (setting [5]) and 4.34 in series [4] (setting [6]).
